Results reported in patent publication US8992932B2 (Seattle Genetics, Inc., dated 2015).

Molecular target: T1, C4.4a on A549 cells transfected with the sequence for the complete C4.4a receptor (Homo sapiens)
T1 chain: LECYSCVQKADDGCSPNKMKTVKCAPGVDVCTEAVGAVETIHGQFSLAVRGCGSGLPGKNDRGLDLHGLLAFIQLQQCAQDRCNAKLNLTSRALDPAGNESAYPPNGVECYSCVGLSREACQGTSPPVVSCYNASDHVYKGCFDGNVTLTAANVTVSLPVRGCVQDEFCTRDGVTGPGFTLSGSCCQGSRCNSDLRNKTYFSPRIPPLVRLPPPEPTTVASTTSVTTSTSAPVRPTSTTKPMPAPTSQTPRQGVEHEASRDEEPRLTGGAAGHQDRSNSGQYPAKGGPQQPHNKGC
Assay: cell-based or functional assay

B1: ADC of Example 49 (antibody, V domains shown)
VH: EVQLLESGGGLVQPGGSLRLSCAASGFTFSSAWMSWVRQAPGKGLEWVSYISSSGSTIYYADSVKGRFTISRDNSKNTLYLQMNSLRAEDTAVYYCAREGLWAFDYWGQGTLVTVSS
VL: QSVLTQPPSVSGAPGQRVTISCTGSSSNIGAGYVVHWYQQLPGTAPKLLIYDNNKRPSGVPDRFSGSKSGTSASLAISGLRSEDEADYYCAAYDDSLSGPVFGGGTKLTVLG
modifications: toxophore-linker on Cys (via S); toxophore-linker on Cys (via S)
In the case of B1, the “IC50 [nM] A549: C4.4a (cell viability)” value is reported as 0.076 nM.

B2: ADC of Example 53 (antibody, V domains shown)
VH: EVQLLESGGGLVQPGGSLRLSCAASGFTFSSAWMSWVRQAPGKGLEWVSYISSSGSTIYYADSVKGRFTISRDNSKNTLYLQMNSLRAEDTAVYYCAREGLWAFDYWGQGTLVTVSS
VL: QSVLTQPPSVSGAPGQRVTISCTGSSSNIGAGYVVHWYQQLPGTAPKLLIYDNNKRPSGVPDRFSGSKSGTSASLAISGLRSEDEADYYCAAYDDSLSGPVFGGGTKLTVLG
modifications: toxophore-linker on Cys (via S); toxophore-linker on Cys (via S)
In the case of B2, the “IC50 [nM] A549: C4.4a (cell viability)” value is reported as 0.046 nM.

B3: ADC of Example 52 (antibody, V domains shown)
VH: EVQLLESGGGLVQPGGSLRLSCAASGFTFSSAWMSWVRQAPGKGLEWVSYISSSGSTIYYADSVKGRFTISRDNSKNTLYLQMNSLRAEDTAVYYCAREGLWAFDYWGQGTLVTVSS
VL: QSVLTQPPSVSGAPGQRVTISCTGSSSNIGAGYVVHWYQQLPGTAPKLLIYDNNKRPSGVPDRFSGSKSGTSASLAISGLRSEDEADYYCAAYDDSLSGPVFGGGTKLTVLG
modifications: toxophore-linker on Cys (via S); toxophore-linker on Cys (via S)
For B3, the “IC50 [nM] A549: C4.4a (cell viability)” value was 0.04 nM.

B4: ADC of Example 55 (antibody, V domains shown)
VH: EVQLLESGGGLVQPGGSLRLSCAASGFTFSDYQMTWIRQTPGKGLEWVSGISWNGGSTHYADSVKGRFTISRDNSKNTLYLQMNSLRAEDTAVYYCAKGDYLVYSSYYFKSWGQGTLVTVSS
VL: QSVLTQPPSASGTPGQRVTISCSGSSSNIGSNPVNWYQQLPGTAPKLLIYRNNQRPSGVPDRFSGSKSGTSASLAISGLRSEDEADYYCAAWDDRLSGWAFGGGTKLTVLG
modifications: toxophore-linker on Cys (via S); toxophore-linker on Cys (via S)
With B4 the “IC50 [nM] A549: C4.4a (cell viability)” value was 0.053 nM.
